Results as given in WO2016171242A1 (dated 2016).

T1: human EPHB1 without signal sequence, FLAG-tagged, expressed from pFLAG-EPHB1 (human, UniProt P54762 18-984)
T1 construct: not shown: FLAG tag supplied by the vector pFLAG-GW
T1 sequence: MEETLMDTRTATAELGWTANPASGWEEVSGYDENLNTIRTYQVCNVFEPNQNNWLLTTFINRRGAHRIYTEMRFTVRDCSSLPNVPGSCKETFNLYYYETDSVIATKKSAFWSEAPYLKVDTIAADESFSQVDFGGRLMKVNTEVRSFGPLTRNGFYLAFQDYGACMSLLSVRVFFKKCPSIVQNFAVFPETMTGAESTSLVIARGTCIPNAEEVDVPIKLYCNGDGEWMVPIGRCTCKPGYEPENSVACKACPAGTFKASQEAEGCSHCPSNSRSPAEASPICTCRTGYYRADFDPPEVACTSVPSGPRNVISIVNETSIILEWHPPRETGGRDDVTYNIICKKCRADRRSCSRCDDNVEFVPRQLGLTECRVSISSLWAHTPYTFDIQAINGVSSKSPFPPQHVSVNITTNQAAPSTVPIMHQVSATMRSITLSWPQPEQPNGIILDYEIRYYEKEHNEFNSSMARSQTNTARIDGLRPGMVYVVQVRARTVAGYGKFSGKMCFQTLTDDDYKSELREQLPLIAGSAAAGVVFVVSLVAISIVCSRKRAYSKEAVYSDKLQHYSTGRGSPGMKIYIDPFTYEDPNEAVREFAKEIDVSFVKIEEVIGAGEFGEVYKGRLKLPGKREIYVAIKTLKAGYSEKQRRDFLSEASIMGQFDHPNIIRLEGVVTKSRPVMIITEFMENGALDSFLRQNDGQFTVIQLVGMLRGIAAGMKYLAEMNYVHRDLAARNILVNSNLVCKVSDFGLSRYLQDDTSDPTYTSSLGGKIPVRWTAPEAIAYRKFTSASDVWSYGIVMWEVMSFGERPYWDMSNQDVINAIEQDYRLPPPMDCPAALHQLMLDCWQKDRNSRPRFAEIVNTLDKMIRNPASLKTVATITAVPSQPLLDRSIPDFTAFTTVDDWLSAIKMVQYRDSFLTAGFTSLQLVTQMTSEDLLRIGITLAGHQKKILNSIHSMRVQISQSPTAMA

B1: mouse anti-human EPHA2 antibody A201 (antibody, V domains shown)
VH: EVQLQQSGAELVKPGASVKLSCTVSGFTFKDTYVHWVKQRPEQGLEWIGRIDPANANTKYDPKFQGKASITADTSSNTAYLQLSSLPSEDTAVYYCAAYGKSAWFAYWGQGTLVTVSA
VL: DIQMTQTTSSLSASLGDRVTISCRASQDIGNYLNWYQQKPDGTVKVLIYYTSRLHSGVPSRFSGSGSGTDYSLTISNLEQEDIATYFCQQGHSLPPTFGGGTKLEIKR
notes: Mouse monoclonal antibody purified from hybridoma supernatant, isotype IgG1; also called A201 antibody
B2: mouse anti-human EPHA2 antibody A205 (antibody, V domains shown)
VH: QIQLVQSGPELKKPGETVKISCKASGYTFTDYSMNWVKQAPGKGLKWMGWINTYTGEPTYADDFKGRFAFSLETSASTAYLQINNLKNEDTATYFCASPISLLRLLDYWGQGTTLTVSS
VL: DVVMTQTPLSLPVSLGDQASIPCRSSQSLVHSNGNTYLHWYLQKPGQSPKLLIYKVSNRFSGVPDRFSGSGSGTDFTLKISRVEAEDLGVYFCSQSTHVPWTFGGGTKLEIKR
notes: Mouse monoclonal antibody purified from hybridoma supernatant, isotype IgG2b; also called A205 antibody

What was measured:
[1] = molecular target: T1, human EPHB1 without signal sequence, …; test: flow cytometry on 293F cells transfected with pFLAG-EPHB1
[2] = molecular target: T2, human EPHA4 without signal sequence, FLAG-tagged, expressed from pFLAG-EPHA4 (human, UniProt P54764 20-986); test: immunohistochemistry on formalin-fixed, paraffin-embedded 293F cells transiently expressing EPHA4; antibody at 2.5 μg/mL
T2 construct: also called EPHA4-expressing cells; not shown: FLAG tag supplied by the vector pFLAG-GW
T2 sequence (P54764 20-986): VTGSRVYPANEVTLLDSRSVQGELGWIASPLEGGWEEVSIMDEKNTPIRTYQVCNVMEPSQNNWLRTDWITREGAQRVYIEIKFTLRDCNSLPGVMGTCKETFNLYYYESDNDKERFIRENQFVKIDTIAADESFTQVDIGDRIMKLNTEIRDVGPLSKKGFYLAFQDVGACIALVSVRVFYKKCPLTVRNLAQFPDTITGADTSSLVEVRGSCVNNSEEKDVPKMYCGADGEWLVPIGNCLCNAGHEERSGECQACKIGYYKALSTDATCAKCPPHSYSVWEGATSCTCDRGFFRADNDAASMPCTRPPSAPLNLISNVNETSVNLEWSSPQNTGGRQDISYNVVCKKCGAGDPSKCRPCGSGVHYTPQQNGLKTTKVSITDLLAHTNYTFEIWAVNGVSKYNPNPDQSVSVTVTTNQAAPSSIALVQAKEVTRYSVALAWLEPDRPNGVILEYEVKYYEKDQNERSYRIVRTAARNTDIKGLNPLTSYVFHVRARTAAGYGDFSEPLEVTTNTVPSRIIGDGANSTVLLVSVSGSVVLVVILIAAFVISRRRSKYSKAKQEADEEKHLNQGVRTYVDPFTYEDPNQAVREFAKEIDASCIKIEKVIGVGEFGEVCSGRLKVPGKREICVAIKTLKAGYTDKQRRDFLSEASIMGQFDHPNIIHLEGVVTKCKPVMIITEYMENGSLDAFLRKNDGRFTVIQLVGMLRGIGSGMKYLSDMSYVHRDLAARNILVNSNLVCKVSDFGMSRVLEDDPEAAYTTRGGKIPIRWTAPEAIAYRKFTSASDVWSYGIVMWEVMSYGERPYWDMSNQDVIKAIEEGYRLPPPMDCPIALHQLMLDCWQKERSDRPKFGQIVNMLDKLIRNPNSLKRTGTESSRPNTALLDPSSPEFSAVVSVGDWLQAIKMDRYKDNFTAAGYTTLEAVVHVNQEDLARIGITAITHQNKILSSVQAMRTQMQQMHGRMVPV

[3] = molecular target: T1, human EPHB1 without signal sequence, …; test: flow cytometry on transfected 293F cells

Row | Binder | binding result [1] | binding result [2] | binding result [3]
1 | B1 | binds | binds | –
2 | B2 | – | – | no binding
